First the molecules themselves.
B1: SWI/SNF-related matrix-associated actin-dependent regulator of chromatin subfamily B member 1, residues 181 to 248; numbered along this chain, Q12824 (parent)
chain: SQPEVLVPIRLDMEIDGQKLRDAFTWNMNEKLMTPEMFSEILCDDLDLNPLTFVPAIASAIRQQIESY

The results in this text go back to the Human Domainome abundance scans (Beltran et al. 2025).

± gives the uncertainty stated by the source.

In the series the parent is B1. Description: abundance fitness (aPCA) (normalised: wild type 0, dead -1); higher = more abundant; growth selection in yeast, the domain comes from the species named. The note with it: Homo sapiens.
In the case of SQPEVLVPIRLDMEIYGQKLRDAFTWNMNEKLMTPEMFSEILCDDLDLNPLTFVPAIASAIRQQIESY [D16Y], the abundance fitness is -0.546 ± 0.086.
With SQPEVLVPIRLDMEINGQKLRDAFTWNMNEKLMTPEMFSEILCDDLDLNPLTFVPAIASAIRQQIESY [D16N], the abundance fitness was -0.312 ± 0.11.
For SQPEVLVPIRLDMEIAGQKLRDAFTWNMNEKLMTPEMFSEILCDDLDLNPLTFVPAIASAIRQQIESY [D16A], the abundance fitness was -0.161 ± 0.035.
Regarding SQPEVLVPIRLDMEIIGQKLRDAFTWNMNEKLMTPEMFSEILCDDLDLNPLTFVPAIASAIRQQIESY [D16I], the abundance fitness is -0.861 ± 0.22.
For the variant SQPEVLVPIRLDMEIDGQKLRDAFTWNMNEKLMTPEMFSEILCDDLDLNPLTFVPAIASAIRQQIESK [Y68K], the abundance fitness was -0.47 ± 0.17.
As to SQPEVLVPIRLDMEIDGQKLRDAFTWNMNEKLMTPEMFSEILCDDLDLNPLTFGPAIASAIRQQIESY [V54G], the abundance fitness is 0.144 ± 0.14.
With SQPEVLVPIRLDMEIDGSKLRDAFTWNMNEKLMTPEMFSEILCDDLDLNPLTFVPAIASAIRQQIESY [Q18S], the abundance fitness is -0.425 ± 0.099.
Take SQPEVLVPIRLDMEIDGQKLRDAFTWNMNEKLMTPEMFSELLCDDLDLNPLTFVPAIASAIRQQIESY [I41L]: the abundance fitness was -0.011 ± 0.036.
With SQPEVLVPIRLDVEIDGQKLRDAFTWNMNEKLMTPEMFSEILCDDLDLNPLTFVPAIASAIRQQIESY [M13V] the figure was -0.214 ± 0.17; with SQPEVLVPIRLDQEIDGQKLRDAFTWNMNEKLMTPEMFSEILCDDLDLNPLTFVPAIASAIRQQIESY [M13Q], -0.717 ± 0.34.
Turning to SQPEVLVNIRLDMEIDGQKLRDAFTWNMNEKLMTPEMFSEILCDDLDLNPLTFVPAIASAIRQQIESY [P8N], the abundance fitness is -0.286 ± 0.14.
As for SQPEVLVPIRLDMEIDGQKLTDAFTWNMNEKLMTPEMFSEILCDDLDLNPLTFVPAIASAIRQQIESY [R21T], the abundance fitness was 0.009 ± 0.075.
SQPEVLVPIRLDMEIDGQKLKDAFTWNMNEKLMTPEMFSEILCDDLDLNPLTFVPAIASAIRQQIESY [R21K]: the abundance fitness turned out to be 0.011 ± 0.13.
For the variant SQPEVLVPIRLDMEIDGQKLVDAFTWNMNEKLMTPEMFSEILCDDLDLNPLTFVPAIASAIRQQIESY [R21V], the abundance fitness amounted to 0.115 ± 0.04.
As for SQPEVLVPIRLDMEIDGQKLRDAFMWNMNEKLMTPEMFSEILCDDLDLNPLTFVPAIASAIRQQIESY [T25M], the figure is 0.092 ± 0.051; as for SQCEVLVPIRLDMEIDGQKLRDAFTWNMNEKLMTPEMFSEILCDDLDLNPLTFVPAIASAIRQQIESY [P3C], -0.297 ± 0.07; as for SQPEVLVPIRLDMEIDGQKLRDAFTWNMNEKNMTPEMFSEILCDDLDLNPLTFVPAIASAIRQQIESY [L32N], 0.207 ± 0.1.
As to SQPEVLVPIRLDMEIDGQKLRDAFTWNMNEKEMTPEMFSEILCDDLDLNPLTFVPAIASAIRQQIESY [L32E], the abundance fitness worked out at 0.207 ± 0.045.
As for SQPEVLVPIRLDMEIDGQKLRDAFTWNMNEKQMTPEMFSEILCDDLDLNPLTFVPAIASAIRQQIESY [L32Q], the abundance fitness came out at 0.099 ± 0.047.
Take SQPEVLVPIRLDMEIDGQKLRDAFTWNMNEKPMTPEMFSEILCDDLDLNPLTFVPAIASAIRQQIESY [L32P]: the abundance fitness was -0.821 ± 0.21.
Take SQPEVLVPIRLDMEIDGQKLRDAFTWNMNEKLMTPEMFSEILCDDLDLNPLTFVPAIASAIRQQIEGY [S67G]: the abundance fitness is -0.012 ± 0.039.
Take SQPEVLVPIRLDMEIDGQKLRDAFTWNMNEKLMTPEMFSEILCDDLDLNPLTFVPAIASAIRQQIENY [S67N]: the abundance fitness amounted to 0.082 ± 0.063.
With SQPEVLVPIRLDMEIDGQKLRDAFTWNMNEKLMTPEMCSEILCDDLDLNPLTFVPAIASAIRQQIESY [F38C] the figure was -0.675 ± 0.24; with SQPEVLVPIRLDMEIDGQKLRDAFTWNMNEKLMTPEMFSEILCDDLDLNPLTFVPALASAIRQQIESY [I57L], -0.76 ± 0.068; with SQPEVLVPIRLDMEIDGQKLRDAFTWNMNEKLMTPEMFSTILCDDLDLNPLTFVPAIASAIRQQIESY [E40T], -0.12 ± 0.045.
In the case of SQPEVLVPIRLDMEIDGQKLRDAFTWNMNEKLMTPEMFSEILCDDLDLNELTFVPAIASAIRQQIESY [P50E], the abundance fitness is -0.818 ± 0.13.
As to SQPEVLVPIRLDMEIDGQKLRDAFTWNMNEKLMTPEMFSEILCDDLDLQPLTFVPAIASAIRQQIESY [N49Q], the abundance fitness was -0.458 ± 0.055.
Turning to SQPEVLVPIRLDMEIDGQKLRDAFTWNMNEKLMIPEMFSEILCDDLDLNPLTFVPAIASAIRQQIESY [T34I], the abundance fitness was -0.848 ± 0.39.
Take SQPEVLVPIRLDMEIDGQKLRDAFTWNMNEKLMTPEMFSEILCDDLDLNPLTFVPAIASAINQQIESY [R62N]: the abundance fitness was -0.256 ± 0.083.
In the case of SQPEVLVPIRLDMEIDGQKLRDAFTWNMNEKLMTPEMFSEILCDDLDLNPLTFVPAIASAIAQQIESY [R62A], the abundance fitness was -0.66 ± 0.4.
As for SQPEVLVPIRLDMEIDGQKLRDAFTWNMNEKLMTPEMFSEILCDDLDLNPLTFVPAIASAIYQQIESY [R62Y], the abundance fitness was -0.119 ± 0.45.
Turning to SQPEVLVPIRLDMEIDGQKLRDAFTWNMNEKLMTPEMFSEILCDDLDLNPLTFVPAIASAIRCQIESY [Q63C], the abundance fitness was -0.129 ± 0.066.
As for SQPEVLVPIRLDMEIDGQKLRDAFTWNMNEKLMTPEMFSEILCDDLDLNPLTFVPAIASAIRTQIESY [Q63T], the abundance fitness is -0.043 ± 0.055.
Regarding SQPEVYVPIRLDMEIDGQKLRDAFTWNMNEKLMTPEMFSEILCDDLDLNPLTFVPAIASAIRQQIESY [L6Y], the abundance fitness was -0.346 ± 0.29.
As for SQPEVLVPIRLDMEIDGQKLRDAFTWNMNEKLMTPEMFSEILCDDLDLNPLTFVPAIASAIRQQQESY [I65Q], the figure is -0.852 ± 0.22.
SQPEVLVPIRLDMEIDGQKLRDAFTWNMNEKLMTPEMFSEILCDDLDLNPLTFVPAIASAIRQQITSY [E66T]: the abundance fitness is -0.169 ± 0.073.
Take SQPEVLVPIRLDMEIDGQKLRDAFTWNMNEKLMTPEMFSEILCDDLDLNPLTFVPAIASAIRQQIASY [E66A]: the abundance fitness amounted to 0.096 ± 0.049.
As for SQPEVLVPIRLDMEIDGQKLRDAITWNMNEKLMTPEMFSEILCDDLDLNPLTFVPAIASAIRQQIESY [F24I], the abundance fitness is -0.156 ± 0.15.
Consider SQPFVLVPIRLDMEIDGQKLRDAFTWNMNEKLMTPEMFSEILCDDLDLNPLTFVPAIASAIRQQIESY [E4F], for which the abundance fitness was -0.294 ± 0.098.
Take SQPSVLVPIRLDMEIDGQKLRDAFTWNMNEKLMTPEMFSEILCDDLDLNPLTFVPAIASAIRQQIESY [E4S]: the abundance fitness is -0.331 ± 0.062.
